Experimental data from US20240287172A1 (SCIRHOM, published 2024).
Substitutions are numbered along the chain they refer to.

How the values were obtained:
[1] = target: T1, dog iRhom2 full length wild type, T7-tagged (dog, UniProt Q00M95 1-827); test: FACS, MEF-DKO cells; via representative antibody 16
T1 construct: whole, on cells; on MEF-DKO cells; also called Dog-iR2-FL-WT-T7
T1 sequence: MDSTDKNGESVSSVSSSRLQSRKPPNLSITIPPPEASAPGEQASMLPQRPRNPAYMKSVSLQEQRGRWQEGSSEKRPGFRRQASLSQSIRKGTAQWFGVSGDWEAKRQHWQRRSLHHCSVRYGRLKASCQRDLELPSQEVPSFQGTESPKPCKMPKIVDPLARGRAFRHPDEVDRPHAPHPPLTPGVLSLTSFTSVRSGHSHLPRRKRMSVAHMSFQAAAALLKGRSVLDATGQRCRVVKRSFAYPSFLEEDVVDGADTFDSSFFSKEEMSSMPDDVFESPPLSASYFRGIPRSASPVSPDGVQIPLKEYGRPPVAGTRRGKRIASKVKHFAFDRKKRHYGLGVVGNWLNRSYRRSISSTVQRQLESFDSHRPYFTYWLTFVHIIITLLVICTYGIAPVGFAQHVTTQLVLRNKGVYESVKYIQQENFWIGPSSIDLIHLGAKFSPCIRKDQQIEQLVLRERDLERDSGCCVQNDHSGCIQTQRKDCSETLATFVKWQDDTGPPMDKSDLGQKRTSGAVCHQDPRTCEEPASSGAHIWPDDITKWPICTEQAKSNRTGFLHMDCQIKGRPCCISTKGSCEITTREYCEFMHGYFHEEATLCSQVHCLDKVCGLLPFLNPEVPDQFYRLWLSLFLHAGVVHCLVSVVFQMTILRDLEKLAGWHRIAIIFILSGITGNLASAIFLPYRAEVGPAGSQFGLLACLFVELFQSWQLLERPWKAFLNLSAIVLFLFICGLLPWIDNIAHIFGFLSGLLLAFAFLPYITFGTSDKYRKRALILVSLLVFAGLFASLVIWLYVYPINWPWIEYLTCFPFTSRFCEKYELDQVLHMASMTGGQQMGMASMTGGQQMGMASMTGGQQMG
Procedure: In brief, immortalized MEF-DKO-EV control cells, MEF-DKO-rhesus-iR2-FL-WT-T7 cells, MEF-DKO-cyno-iR2-FL-WT-T7 cells, MEF-DKO-dog-iR2-FL-WT-T7 cells and MEF-DKO-rabbit-iR2-FL-WT-T7 cells, as well as their respective iRhom1 counterparts, were harvested with 10 mM EDTA in PBS, washed and resuspended in FACS buffer (PBS, 3% FBS, 0.05% sodium azide), and seeded in Nunc U-bottom 96-well plates (Thermo Fisher Scientific, USA) at approximately 3×10⁵ cells per well. To pellet cells and remove supernatants, the plates were centrifuged at 1,500 rpm and 4° C. for 3 minutes. For primary staining, cells were resuspended in 100 μl per well of either FACS buffer alone (controls), mouse monoclonal anti-T7 IgG (Merck Millipore, USA) at 3 μg/ml FACS buffer or the antibodies of the invention also at 3 μg/ml FACS buffer and incubated on ice for 1 hour.
Afterwards, plates were centrifuged at 1,500 rpm and 4° C. for 3 minutes and washed twice with 200 μl per well of FACS buffer. For secondary staining, cells were spun down and resuspended in 100 μl per well of PE-conjugated goat anti-mouse IgG F(ab′)2 detection fragment (Dianova, Germany) diluted 1:100 in FACS buffer. Protected from light, the cell suspensions were incubated on ice for 1 hour. Plates were then centrifuged at 1,500 rpm and 4° C. for 3 minutes and washed three times with 200 μl per well of FACS buffer. Finally, cells were resuspended in 150 μl per well of FACS buffer and analyzed using a BD Accuri™ C6 Plus flow cytometer (Becton Dickinson, Germany).

[2] = target: T2, hiR2-FL-K536-T7 (deletion of K536) (human, UniProt Q6PJF5 1-856); test: FACS on MEF-DKO cells
T2 construct: single amino acid deletion
T2 sequence: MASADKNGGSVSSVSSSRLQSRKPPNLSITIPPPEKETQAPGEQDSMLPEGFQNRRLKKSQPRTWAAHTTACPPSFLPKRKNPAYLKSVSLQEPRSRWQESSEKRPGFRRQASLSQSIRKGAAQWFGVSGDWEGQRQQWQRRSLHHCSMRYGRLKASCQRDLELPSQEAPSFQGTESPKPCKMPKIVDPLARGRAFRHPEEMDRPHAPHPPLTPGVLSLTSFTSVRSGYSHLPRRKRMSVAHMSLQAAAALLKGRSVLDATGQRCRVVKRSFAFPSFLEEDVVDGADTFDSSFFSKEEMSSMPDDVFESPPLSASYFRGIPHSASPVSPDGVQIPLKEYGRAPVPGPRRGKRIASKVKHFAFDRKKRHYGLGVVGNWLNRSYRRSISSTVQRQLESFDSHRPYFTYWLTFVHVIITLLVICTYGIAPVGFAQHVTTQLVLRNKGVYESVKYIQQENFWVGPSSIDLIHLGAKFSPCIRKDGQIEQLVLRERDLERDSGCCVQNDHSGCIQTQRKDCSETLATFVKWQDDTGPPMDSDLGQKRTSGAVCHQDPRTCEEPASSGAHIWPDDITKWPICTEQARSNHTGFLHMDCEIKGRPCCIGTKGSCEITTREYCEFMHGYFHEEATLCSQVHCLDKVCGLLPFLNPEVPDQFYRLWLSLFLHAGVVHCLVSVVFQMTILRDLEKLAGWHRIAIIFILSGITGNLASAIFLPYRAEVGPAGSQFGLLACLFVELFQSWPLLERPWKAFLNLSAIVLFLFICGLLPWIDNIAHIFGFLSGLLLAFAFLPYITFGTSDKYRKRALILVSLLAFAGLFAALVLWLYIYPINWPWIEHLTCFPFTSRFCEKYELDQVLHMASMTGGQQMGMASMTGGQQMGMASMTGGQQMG

B1: antibody 51 (antibody, V domains shown)
VH: QVQLQQSGAELVKPGASVKISCKASGYTFSNYWMNWVKQRPGKGLEWIGQIYPGDGDTKYNGKFKNKATLTADKSSSTAYMQFSSLTSEDSAVYFCARGDLVFVYWGLGTLVTVSA
VL: DVQITQSPSYLAVSPGETITINCRASKNIRKYLAWYQEKPGKTNKLLIYSGSTSQSGVPSRFSGSGSGTDFTLTISSLEPEDFAMYYCQQHNEYPYTFGGGTKLEIK
notes: mouse IgG, kappa light chain; also called clone #51
binding result [1]: binds

B2: antibody 16 (antibody, V domains shown)
VH: QVTLKESGPGILQPSQTLSLTCSFSGFSLSTFALGVGWIRQPSGRGLEWLAHIWWDDDKYYNPALKSRLTISKDTSKNHVFLKIANVDTADTATYYCARITTYYYGMDYWGQGTSVTVSS
VL: DIVLSQSPATLSVTPGDSVSLFCRASQSIGNHLHWYQQESHASPRLLIKYASQSISGIPSRFSGSGSGTDFTLSINSVETEDFGMYFCQQSYNWPLTFGAGTKLELK
notes: mouse IgG, kappa light chain; also called clone #16; purified antibody 16
binding result [2]: no binding (tested: 3 µg/ml)

B3: antibody 3 (antibody, V domains shown)
VH: QVTLKESGPGILQPSQTLSLTCSFSGFSLTTFAMGIGWVRQPSGKGLEWLAHIWWDGEKYNNPVLKSRLTISKDTSKNQVFLRIANVDTPDTATYYCARISSIYYIIDNWGQGTSVTVSS
VL: B2 VL with S5T, D17H, F22S, G30S, H32N, Q38K, E39K, A42E, A51V
notes: mouse IgG, kappa light chain; also called clone #3; purified antibody 3
binding result [2]: no binding (tested: 3 µg/ml)
binding result [1]: binds

B4: antibody 48 (antibody, V domains shown)
VH: QVQLQQSGTELVRPGTSVKVSCKASGYAFTNYLIEWVKQRPGQGLEWIGVINPGSGFTKYNEKFKGKATLTADKSSSTVYMHLSSLTSEDSAVYFCARGLYRAMDYWGQGTSVTVSS
VL: DIQMTQSPASQSASLGESVTITCLASQTIATWLAWYQQKPGKSPQLLIYGATTLADGVPSRFSGGGSGTKFSFKISSLQAEDFVSYYCQQLYSTPYTFGGGTKLEIK
notes: mouse IgG, kappa light chain; also called clone #48; purified antibody 48
binding result [1]: binds

B5: antibody 47 (antibody, V domains shown)
VH: B4 VH with T9A, K59N, T69I, T71N, V79A, H82Q, S84I, G99D, Y101K, Y106H
VL: B4 VL with A30G, Y49H, G50A, T53S, G65S, L91I, T94S
notes: mouse IgG, kappa light chain; also called clone #47
binding result [1]: binds

B6: antibody 50 (antibody, V domains shown)
VH: B4 VH with T9A, T16A, T30S, V79A, H82Q
VL: B4 VL with A30G, G50A, T52A, T53S, S85N, L91I
notes: mouse IgG, kappa light chain; also called clone #50; purified antibody 50
binding result [1]: binds

B7: antibody 46 (antibody, V domains shown)
VH: QVTLKESGPGILQPSQTLSLTCSFSGFSLSTFGMGVGWIRQPSGKGLEWLAHIWWDDDNYYNQALKSRLTISKDNTKNQVFLNIANVDTADTATYYCARIRSYDYDVRYAMDYWGQGTSVTVSS
VL: DIKMTQSPSSMYASLRERVTITCKASQDINSYLSWFQQKPGKSPKTLIYRANRLVDGVPSRFSGSGSGQDYSLTISSLEYEDLGIYYCQQYYEFPLTFGAGTRLELK
notes: mouse IgG, kappa light chain; also called clone #46
binding result [1]: binds

B8: antibody 34 (antibody, V domains shown)
VH: QVTLKESGPGILQPSQTLSLTCSFSGFSLSTFSLGVGWIRQSSGKGLEWLAHIWWDDEKYYNPALKSRLTISKDTSKNQVFLKIANVDAADTATYYCARAYYSKSYYALDYWGQGTSVTVSS
VL: DIQMTQSPSSLSASLGERVSLTCRASQEISGYLSWLQQKPDGTIKRLIYAASTLDSGVPKRFSGSRSGSDYSLAISSLESEDFADYYCLQYANFPFTFGSGTKLEIK
notes: mouse IgG, kappa light chain; also called clone #34; purified antibody 34
binding result [2]: no binding (tested: 3 µg/ml)
binding result [1]: binds

B9: antibody 5 (antibody, V domains shown)
VH: QVTLKESGPGILQPSQTLSLTCSFSGFSLSTFGMGVGWIRQPSGKGLEWLAHIWWDDEKYYNSALKSRLTISKATSKNQAFLKIANVDTADTATYYCARISNYGSNYWYFNVWGTGTTVTVSS
VL: QVVLTQSPALMSASPGEKVTMTCSAGSSVSCMYWYQQKPGSSPRVLIYDTSNLASGVPARFTGSGSGTSYSLTISRMEAEDAASYYCQQWNSYPLTFGAGTKLELK
notes: mouse IgG, kappa light chain; also called clone #5; purified antibody 5
binding result [2]: no binding (tested: 3 µg/ml)
binding result [1]: binds

B10: antibody 42 (antibody, V domains shown)
VH: B9 VH with F24L, M34R, S63P, A74D, A80V, K83R, S101Q, N111D
VL: LIVLTQSPAIMSASPGEKVTMTCGATSRISYMFWYQQKPGSSPRVLIYDTSNLASGVPVRFSGSGSGTSYSLTISRVEAEDVATYYCQQWNSYPLTFGAGTKLELK
notes: mouse IgG, kappa light chain; also called clone #42; purified antibody 42
binding result [2]: no binding (tested: 3 µg/ml)
binding result [1]: binds

B11: antibody 57 (antibody, V domains shown)
VH: B9 VH with E58D, S63P, A74D, A80I, T92S, Y95F, S101E, N111D
VL: B9 VL with V2I, L10I, G26S, C31Y, A59V, T62S, I74V, S84T
notes: mouse IgG, kappa light chain; also called clone #57
binding result [1]: binds

B12: antibody 54 (antibody, V domains shown)
VH: QVTLKESGPGILQPSQTLSLTCSFSGFSLSTFGLGVGWIRQPSGKGLECLAHIWWDDDKYSNPALKSRLTISKDTSKNQVFLKIANVDSADTATYFCARILNYGSNYWYFDVWGTGTTVTVSS
VL: B9 VL with V2I, G26S, V29I, C31Y, V45L, A59V, T62S, Y70F, I74V, S84T
notes: mouse IgG, kappa light chain; also called clone #54
binding result [1]: binds

B13: antibody 56 (antibody, V domains shown)
VH: B9 VH with A51T, H52N, E58D, A64V, A74D, A80V, S101A, N102A, N111D
VL: B9 VL with V2I, L10I, G26S, C31Y, A54S, A59V, T62S, S84T, N91S
notes: mouse IgG, kappa light chain; also called clone #56
binding result [1]: binds

B14: antibody 49 (antibody, V domains shown)
VH: QVTLKESGPGILQPSQTLSLTCSFSGFSLSTFGMGVGWIRQPSGKGLEWLAHIWWDDDKYYNPALQSRLTVSKDTAKNQVFLKIANVDTADTAIYYCARVGNYGSNYWYFAVWGTGTTVTVSS
VL: B9 VL with V2I, L10I, G26S, C31Y, V45L, A59V, T62S, S84T
notes: mouse IgG, kappa light chain; also called clone #49
binding result [1]: binds

B15: antibody 22 (antibody, V domains shown)
VH: B9 VH with A80V
VL: B9 VL with C31Y, S84T
notes: mouse IgG, kappa light chain; also called clone #22; purified antibody 22
binding result [2]: no binding (tested: 3 µg/ml)
binding result [1]: binds
